For two substances, affinity, Ka and IC50's (nM) for sACE-1 inhibition (fluorogenic substrate cleavage) results are on record in patent US20140377289A1, “Metallodrugs Having Improved Pharmacological Properties, and Methods of Manufacture and Use Thereof” (MetalloPharm, LLC, priority 2011, published 2014).

Where no end group is shown, it is not given here.

Test [1] concerns the target HCV protease (hepatitis C virus (HCV)). Nature of the test: affinity of metallopeptide for HCV protease; method not described.
The target of test [2] is Recombinant human somatic ACE (sACE-1: Leu30-Leu1261, with C-terminal His tag) (human) (UniProt P12821). Briefly: affinity calculated from the IC50 of sACE-1 inhibition (fluorogenic substrate cleavage, 37 C, pH 7.4).
Recombinant human somatic ACE (sACE-1: Leu30-Leu1261, with C-terminal His tag) (human), sequence (P12821 30-1261 limits assumed): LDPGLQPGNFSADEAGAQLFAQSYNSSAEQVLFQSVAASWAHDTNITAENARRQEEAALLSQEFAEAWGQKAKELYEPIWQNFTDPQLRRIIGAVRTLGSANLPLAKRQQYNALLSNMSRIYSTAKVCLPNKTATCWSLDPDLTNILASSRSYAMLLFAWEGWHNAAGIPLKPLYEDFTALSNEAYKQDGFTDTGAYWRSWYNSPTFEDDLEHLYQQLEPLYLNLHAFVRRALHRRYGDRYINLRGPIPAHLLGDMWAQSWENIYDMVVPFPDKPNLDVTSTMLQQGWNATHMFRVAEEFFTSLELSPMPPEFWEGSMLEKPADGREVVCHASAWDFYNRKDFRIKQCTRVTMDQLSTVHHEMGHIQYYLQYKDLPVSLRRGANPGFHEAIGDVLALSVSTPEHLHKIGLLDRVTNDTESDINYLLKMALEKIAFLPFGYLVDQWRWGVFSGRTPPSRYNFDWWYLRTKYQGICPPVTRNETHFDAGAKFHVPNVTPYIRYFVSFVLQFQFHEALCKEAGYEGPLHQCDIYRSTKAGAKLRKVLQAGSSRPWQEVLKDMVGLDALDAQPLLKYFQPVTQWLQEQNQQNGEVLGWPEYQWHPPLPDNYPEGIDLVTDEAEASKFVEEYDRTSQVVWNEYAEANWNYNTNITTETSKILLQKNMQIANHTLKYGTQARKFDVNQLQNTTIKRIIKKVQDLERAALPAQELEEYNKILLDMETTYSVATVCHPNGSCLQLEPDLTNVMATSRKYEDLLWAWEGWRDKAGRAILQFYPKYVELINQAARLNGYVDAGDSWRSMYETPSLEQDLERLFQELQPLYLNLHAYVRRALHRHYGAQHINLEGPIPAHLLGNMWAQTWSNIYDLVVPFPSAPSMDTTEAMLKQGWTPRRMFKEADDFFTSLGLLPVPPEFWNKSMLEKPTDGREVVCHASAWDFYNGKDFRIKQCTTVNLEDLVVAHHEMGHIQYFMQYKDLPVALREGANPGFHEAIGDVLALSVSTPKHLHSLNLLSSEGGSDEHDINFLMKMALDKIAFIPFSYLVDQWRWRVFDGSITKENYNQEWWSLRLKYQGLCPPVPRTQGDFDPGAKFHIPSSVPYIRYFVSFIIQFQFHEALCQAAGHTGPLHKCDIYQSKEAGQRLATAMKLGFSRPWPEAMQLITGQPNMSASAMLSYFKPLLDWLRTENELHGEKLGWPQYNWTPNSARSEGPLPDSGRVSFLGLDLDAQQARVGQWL
Test [3] shares this target. Nature of the test: cell-based or functional assay.

In test [1], GGHDEMEEC came in with an affinity of 48 µM.

With [Cu-GGH]^1- (peptide), the Ka in test [2] was 59000 M⁻¹. In addition, in test [3], the IC50's (nM) for sACE-1 inhibition (fluorogenic substrate cleavage) stood at 17000 nM.
